Data published in the DeepSol protein solubility set.

Experiment: soluble on expression in E. coli; label from the status in PepcDB or PDB records

Soluble on expression in E. coli, not soluble:
MGSDKIHHHHHHMLTTDNQLIRLSQGQLNLLETCPRKFQHTHLEQLNSPLDPDHTDKLTLGSRFHLLMQQQEMGLPIDSFLQADTQLQNWMSGFANAAPEILTPATDRQTFRESEHYRTLQFQDYLLTVIYDLLIADHQQAQIFDWKTYPKPPDKRKLAQNWQTRLYMYVLAETSQYSPENISMTYWFVQSQGKPQNIQFTYSHNLHTQTAKKLHQLLDQLTKWLNNYQQGTLFPQVPVNSKACDYCQFAKKCDRLLPTVGHKLNSSESNSLEITAQAINKSFPALDAIEEVSI
MGSDKIHHHHHHMLVVTTACNLDCAYCYEGGGNGQGEMMDLDTALRALDLVAASNQPFHVQLTGGEPLLAGELVFRILEYIRNNNLPATTAIQTNGVLLDHQTARRLHSFGTAVGVSVDGLPAIQEQLRGQGAATWKALAMLDSERVPFSVTTVLSSRNTRDLSTLGMALHSMPAASAIGLDLLVQKGSAAAKIGVQPPDAVTIRSGVTRLLATLDVLNAQRSRPLILRERQTVLKALGRDEARPYCQACTGSSLAVTPRGELYPCTQTLGDARFHLGTLDHPRLSGTALPDGRLPKREECAGCGLQGRCPGDCPSRLHYNGADGAGLVCALYRTICDYCLYKGEIPS
MGSDKIHHHHHHMLWLLMTTGKCNLKCDYCGGSFPDNVVPYGIKYDINSVKKLIEKDKDSTIIFYGGEPLLNYKFVMAVLDNVRAKRYGIQTNGIAVRLLPERYWRKINVALLSIDGREEITNKHRGKGIYKAVLRSAKYLKDLGVETIARMTVTQDTDIFTDVMHLIDLGLFDKVHWQLDVIWSEEWDFKSWSFSYLNGIKRLTDYFLSELRKGRVVKIIPILGVISAHFFEGYKGSPCGAGYSSVTVTPDGRILSCPIAVREKWAELGNVNLGYRLLEDPLPDDCKRCEFKRYCGGRCLYAQKERYWGEEGFKAVDEVNKEYLRTVLSIIPEIERLIRDGYIRLSDLYYNPILDSTEIIP
MGSDKIHHHHHHMLWSMTDGATPATPPTAAPEERFPHVNPLVYRFVVDVTFLPVLLTGMHIDVHGREHVPPPGTPLVVAANHQSALDPFLIARALPPGRYLQFMAKRELFVPVIGDIIRAGGSFPVDRESNDVGAIRTSLRILKAGGTVGIFPQGTRGGQELHGGAALIAARGRAPILPAGISHDGKRWVVRFGEPLPARGGIKANTEELGRRLQVLAQPVGRHL
MGSDKIHHHHHHMMETTQFNPIQLKRARVARGKTMKVLAEETGISRQMISNYELGKTVPSGLNLVKLISVLNFPKNYFSATQASNLHGATFFRSQNAATKRARDMQSVRLSFQNDIYTTLSQYVNFPKVDLPESLDMDVDDITNDNIKFMAMRVRDQWDLGTKTPIENLIQTAEIHGIVVVKTNMTNDKLDAVSEIIEGRPFIMLTDNGESAVRRRFNVAHELGHIVLHAGIESIHDFTSQQLKNTIERQANLFASTFLMPDDAFVESLLSTSLDYYIKLKQYWKASIQSMIYKTYQLGLINDDQKLYLNKKISWNKWRKIEPLDNILEIENPTLFGKVFNMIIDHKVVSQADLLSELKLPFDELECSLGIQLATQKNISEPKLRLL
MGSDKIHHHHHHMMGGFTVLIEMHCHTSEYSSCSGVAAVNLVRQVAAKNLQGIVLTDHHHLWEASELADVRRRAEVPDHFVILAGQEVTTPELGDVLVFGADATIERGTPLAEIRRRYPAAALVWAHPYRRGKRPTPEQLCHPLLDGVEIFNSNHTVRENSQGLQDWHRDRFTAIAGTDTHGENYAGLYPTQFDHAVKTIADLAAEIRHGRCRPFLKEIPRSGANSQVIEVTIGTKGADEVRERLIIKEIGTRHKWRSAERAFRIMGEIVGHGFDEGKFRVPRPIDEDEASMTLIEQGLRGKSLFDKLLTAEPEDGRAYLSLAAGWLARLHGCRLRITPRDEFLVREDERLARYLERFTAIGHRHTRKVQEILAAVAAEERRVVAEGSAYMVQGHGDFHPKNVFVGQDVMENRSTLFVAAIDFESSYVLPRAFDVGCFLAQFRNQFYHYGEIVNAYPEELFLEAYLRDSDQVEPDFLRQVELFRARTNMSIAAYLVKVGLGDSEDLWRVIVEAERSISNLSTGPAG
MGSDKIHHHHHHMMKISFIIATLNSGGAERALVTLANALCKEHEVSIIKFHAGESFYKLENEVKVTSLEQFRFDTLYHKIASRFKKFFALRKALKESKSDVFISFLDTTNIACIAAKIGLKTPLIISEHSNEAYLKPKIWRFLRRVSYPFCDALSVLGSSDKVYYERFVKRVKLLLNPCHFSDEISFDSSFEKENLVLFIGRLDHNKNPVMFLKAIAHLDKNLQENYKFVIAGDGQLRQELEYKVKSLGIKVDFLGRVENVKALYEKAKVLCLCSFVEGLPTVLIESLYFEVCRISSSYYNGAKDLIKDNHDGLLVGCDDEIALAKKLELVLNDENFRKELVNNAKQRCKDFEISHIKEEWLKLIAEVKNA
MGSDKIHHHHHHMMKQIIAMAGGGFSMEPDNLSLDQYILNQSKREQHRICFLPTASGDSQNYIQRFYHAFQTLDCVPSHLSLFKPPSSDLVSFVMEMDVIYVGGGNTRNLLVLWKEWGLDHILREAWKNGVVVAGISAGAICWFEEGVTDSAGPLTSLKSLGFLQGSFCPHYDGEKDRRPAYHQLISNKFLCSGYAADDGAALHFINDQLFQTVSSRSGAKAYRVMMAEHEIAEIPLPVKYVRVKLAEYYLYSSFFQIDFMIR
MGSDKIHHHHHHMMKSIILIVLDGLGDRPGSDLQNRTPLQAAFRPNLNWLASHGINGIMHPISPGIRCGSDTSHMSLLGYDPKVYYPGRGPFEALGLGMDIRPGDLAFRANFATNRDGVIVDRRAGRENKGNEELADAISLDMGEYSFRVKSGVEHRAALVVSGPDLSDMIGDSDPHREGLPPEKIRPTDPSGDRTAEVMNAYLEEARRILSDHRVNKERVKNGRLPGNELLVRSAGKVPAIPSFTEKNRMKGACVVGSPWLKGLCRLLRMDVFDVPGATGTVGSNYRGKIEKAVDLTSSHDFVLVNIKATDVAGHDGNYPLKRDVIEDIDRAMEPLKSIGDHAVICVTGDHSTPCSFKDHSGDPVPIVFYTDGVMNDGVHLFDELSSASGSLRITSYNVMDILMQLAGRSDKFGS
MGSDKIHHHHHHMMLGNIAYMNPWWEGKEDYHVKLWKNQKIRWEPNWVREISLKPFSLNFILGPRQVGKTTGIKLLIQKILENNPPESVLYLNLEVLPTYRDLLEIIREFQELKKEERIKTGYIFLDEASSLEGWWRGIKPLIDAGLLENDVVTVTGSSSLRVRRDIEMFPGRRGEGKTLEIMPLSFPEYIKVMGLKKHRLESTKVLKLFDKYIQTGGFPGSINGFPMEDLLGAYIGEFVRFGKSLEIAKETLAALIRSAPSATSFRALAEMTSGYSYKVIQDYIEFFRDIYILGIAYLKEDNQVMYRREKKFFFRDPLLARLFSLWSGVEVREDALYEWIVQEHVFRRFGEVYYFRNSYEVDVIADNLKIEVKAGKAHRKYPRGVLVLEKDDIPFFLIEYYWTGLK
MGSDKIHHHHHHMMNKPAPRELEVIRSTYITPHMLRITLGGAGLAGFPADQESAYIKLLFPQAGERPLMRTYTIRQQRDDEIDVDFVLHDTDGPASSWAKTAQVGELIQIGGPGLKKLINFEADWFLLAGDMTALPAISVNLAKLPNNAVGYAVIEVLSEADIQPLVHPEHVELHWVINPEADPEGRPLVERIAQLPWLAGEPAVWIACEFNSMRALRRHFKQAHALPKSHFYTSSYWKIGCNEGEHKLVKQEDEQLENGASV
MGSDKIHHHHHHMMSQEQNDLITRVGPGTPCGKLMRAYWQPAALVDELEGERPIKPVRLLGEDLVLFKDETGRYGLIDRDCPHRGADLAFGRLENGGLRCAFHGWLFDVDGKCIDTPAEPAGSPLCKNIKQRAFPVVAKGGILWAYLGAGEPPAFPEIDCFIAPDTHVFAFKGLMECNWLQALEVGIDPAHASFLHRFFEDEDTSQAYGKQFRGASAGSDLPMTKVLREYDRPIINVEHTEYGLRLIALREIDDERTHVRVTNQLFPHGFVIPMSTEMTITQWHVPVDDTHCYWYAIFTSYAAPVDKVKMRDQRLELYELPNYKSRRNKTNDYGFDPHEQATATYTGMGLDINVHDQWAVESMGAIQDRTREHLGQSDKAIIQYRRLLRQEIEKAASGGKPLLALDEAAARAIQGPATMDGIGPSRGWETYWMEVDVKRRRGAPWAVPVPSEIAAKVPHLTAAE
MGSDKIHHHHHHMMYTNDNRIVMTLDAGGTNFVFSAIQGGKEIADPVVLPACADCLDKCLGNLVEGFKAIQAGLPEAPVAISFAFPGPADYQAGIIGDLPNFPSFRGGVALGPFLEDIFGIPVFINNDGSLFAYGEALTGVLPEINRRLREAGSTKRYKNLLGVTLGTGFGAGVVIDGELLRGDNAAGGYVWCLRNKKYPEYIVEESVSIRAVMRVYAERSGDAGARTPKEIFEIAEGIRPGNREAAIAAFEELGEMAGDALASAITLIDGLIVIGGGLSGASKYILPVLLKEMNAQTGMMDGARFGRLQKEVYDLDEEKSFAGFARGEAVEVLVPGTNRKVGYDPCKRIGVTFSKQGANRSIAMGAYVFALNHLSK
MGSDKIHHHHHHMNAALWISKTGLDAQTKDIAVISNNLANASTIGFKKSRAVFEDLLYQNINQPGGRTAQDTEAPSGLMLGAGTKVVATQKIHTQGDMITSDNALDLMIQGEGFFEIQMPDGSSAYSRNGQFTMDDEGNMVTPGAGYMIQPQVTIPEDALSIIVSQDGEVSVTLQGQPDPAVVGQINLINFVNPTGLQPIGQNLYTETAVSGAPQEGVPGLEGYGMLVQGALETSNVNTTEELVNLIESQRVYEMNSKVISAVDEMLSYINQQM
MGSDKIHHHHHHMNARTLDPTERLIEKEPYYEPVGEEIALFEAAYRQRIPVLLKGPTGCGKTRFMEHMAWRLQRPLITVSCHDDLTASDLVGRYLVKGGETVWVDGPLTRAVRCGGICYLDEIVEARKDTMVVIHPLADDRRTLAMEKLGQMLEAPAEFCLAISYNPGYQSVLKDLKQSTRQRFVALEFDYPSAALEQRIVATESGVSDAVADKLVRFAQMTRNLKGSGLEEGASTRLLVHAGKLISDGISPVTACKSAVAQAVTDDADMLKAIQELSSSVF
MGSDKIHHHHHHMNAVLPRLAMRDIVKSFGSVRVLDGVSLDVMPGEIVALLGSNGAGKSTLMKILTANYTKNAGDIRVNDTLVDFASPRDAARVGITFLPQEISVFPELSVAENICMSADSKGTVDWSGMARRSAAVLDDLGFGHLSPDMLVADLPVAERRIIEIARALEGQADILVMDEPTASLSEQESEQIFTILRRLKDRGTSIVYISHYLKEVFEISDRIVVLRDGLNAGEFDPTTADVTKVVGAMLGKAAGSMFDDRDPLPASAPVVFTCAGLTLPGVIEDVSFDLRAGEILGIFGLIGSGVEVLGRAIFGTQGRPPAGAMTLNGTPYTPVSPRKGKEAGIGFVTAERKTDGIMADMSVRENIVAAFQSDLGHGPFTSPAREAAHTLDWIEKLGIKTSGPEQAIRLLSGGNQQKVCVARWLNPKVKMLILEEPTRGVDVGARREIYSHLVDFARSGLAVLVLSSDVEEVAGLSDRSLVIDRGRILAEFGRGATPGDLMAASAQSEHHD
MGSDKIHHHHHHMNDINLLPLTSAYLDLILEWRNNPEVRRNMYTSHVISKAEHYAWFKKLESDNTKQCFIFVLNGVPSGFISFVDINLNSKSATWAFYSGNTSVRGIGSLMEVSALNYAFSTLGLHKLSCEVLEFNNMVVRFHEKYGFHVEGVFKKHHFSEGEYWDIYRLAIFNEEWARCKLEINLKKQSISPGSSYRENVFFTNENIIGFSALSGDCNQIHLNKQYAIKNGFDNNLVHGFLVGSVFSKVFGTRFPGDGCIYISQSLSFLSPVYPDDLLEASFVVLSKIGRKLVVETSITNLHSNKKVIDGVAELLISMDSQIGYLNQYL
